From doi:10.1101/2024.04.26.591305 (2024)

B1: U20 (msfGFPΔC10-Utr28-222) (domain or fragment)
chain: EHNDVQKKTFTKWINARFSKSGKPPINDMFTDLKDGRKLLDLLEGLTGTSLPKERGSTRVHALNNVNRVLQVLHQNNVELVNIGGTDIVDGNHKLTLGLLWSIILHWQVKDVMKDVMSDLQQTNSEKILLSWVRQTTRPYSQVNVLNFTTSWTDGLAFNAVLHRHKPDLFSWDKVVKMSPIERLEHAFSKAQTYL

molecular target: α-skeletal muscle actin filaments (rabbit) (rabbit, UniProt P68135 1-377)

Kd | Binder
4.5 µM | VADLIKKFESISKEE (domain or fragment) [L45 (msfGFPΔC9-LifeactΔN2)]
11.3 µM | MGVADLIKKFESI (domain or fragment) [L22 (LifeactΔC4-msfGFPΔN7)]
13.2 µM | B1
